Measured values reported in patent US20240360223A1 (DRAGONFLY THERAPEUTICS, published 2024).
Substitutions are numbered along the chain they refer to. Where “and” joins values, the source holds several entries; their conditions need not be identical. Equal values may be shown once. Read-outs that look alike come from different tables or passages of the source.

What was measured:
[1] = target: T1, cynomolgus NKG2D (recombinant mFc-tagged dimer) (cynomolgus, UniProt P61252 78-216); test: SPR
T1 construct: also called cyno NKG2D
T1 sequence (looked up): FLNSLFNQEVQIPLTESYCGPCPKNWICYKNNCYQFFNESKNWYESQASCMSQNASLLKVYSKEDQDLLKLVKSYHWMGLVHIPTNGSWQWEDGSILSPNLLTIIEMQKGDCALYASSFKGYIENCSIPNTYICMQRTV

[2] = target: T1, cynomolgus NKG2D (recombinant …); test: SPR; remark: listed apart in the source
Description: (§1) Two different fits were utilized to obtain the equilibrium affinity data: steady state affinity fit and kinetic fit.

[3] = target: T1, cynomolgus NKG2D (recombinant …); test: SPR, average
[4] = target: T2, human CD16a V158 (human, UniProt P08637 17-208); test: SPR, average
T2 construct: also called hCD16aV; hCD16a V158

[5] = target: T3, cynomolgus CD16 (cynomolgus, UniProt Q8SPW2 17-208, limits assumed); test: SPR, average
T3 construct: also called Cyno CD16; cynomolgus FcγRIII

[6] = target: T3, cynomolgus CD16; test: SPR, average; remark: listed apart in the source
[7] = target: T2, human CD16a V158; test: SPR, control
[8] = target: T1, cynomolgus NKG2D (recombinant …); test: SPR, average; remark: listed apart in the source
Description: as §1

[9] = target: human CD16a F158 (human, UniProt P08637 17-208); test: SPR, steady state
[10] = target: T4, human BAFF-R expressed on cells (human, UniProt Q96RJ3 1-184); test: cell-based or functional assay
[11] = target: T1, cynomolgus NKG2D (recombinant …); test: SPR, 1:1 kinetic fit
Description: (§2) NKG2D is a native dimer, therefore recombinant mFc-tagged NKG2D dimer was used for this experiment. Two different fits were utilized to obtain the equilibrium affinity data: steady state affinity fit and kinetic fit.

[12] = target: T4, human BAFF-R expressed on cells; test: cell-based or functional assay; remark: listed apart in the source
[13] = target: T4, human BAFF-R expressed on cells; test: flow cytometry, RL cells
[14] = target: T2, human CD16a V158; test: SPR, kinetic fit, average
[15] = target: T5, human CD32a H131 (human, UniProt P12318 36-218, limits assumed); test: SPR, steady state, average
T5 sequence (looked up): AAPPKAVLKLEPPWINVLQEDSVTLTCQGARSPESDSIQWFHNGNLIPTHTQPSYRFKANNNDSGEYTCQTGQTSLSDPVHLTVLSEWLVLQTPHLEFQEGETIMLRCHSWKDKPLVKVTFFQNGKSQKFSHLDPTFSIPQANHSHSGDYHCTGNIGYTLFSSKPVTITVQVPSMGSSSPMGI

[16] = target: T4, human BAFF-R expressed on cells; test: flow cytometry, Rs4;11 cells
[17] = target: T1, cynomolgus NKG2D (recombinant …); test: SPR, 1:1 kinetic fit, average
Description: as §2

[18] = target: T4, human BAFF-R expressed on cells; test: flow cytometry, SUDHL-6 cells
[19] = target: T4, human BAFF-R expressed on cells; test: flow cytometry, CHO-hBAFF-R cells
[20] = target: T4, human BAFF-R expressed on cells; test: flow cytometry, BJAB cells, control
[21] = target: T4, human BAFF-R expressed on cells; test: flow cytometry, human BAFF-R CHO cells
[22] = target: T6, human NKG2D (recombinant mFc-tagged dimer) (human, UniProt P26718 78-216); test: SPR, steady state, after 4 weeks at 40 °C
T6 construct: also called hNKG2D
T6 sequence (looked up): T1 sequence (looked up) with N38D, I128T

[23] = target: T7, cynomolgus monkey BAFF-R expressed on cells (cynomolgus monkey); test: flow cytometry, cynomolgus BAFF-R CHO cells
T7 construct: whole, on cells; also called cBAFF-R; cynoBAFF-R
Description: Isogenic cell lines overexpressing human and cynomolgus BAFF-R on the backbone of CHO cell line were designed.

[24] = target: T8, cynomolgus FcRn (cynomolgus, UniProt Q8SPV9 24-297; Q8SPW0 21-119); test: SPR, pH 6.0, steady state; pH 6.0; first replicate
T8 construct: also called Cyno FcRn

[25] = target: human FcRn (human, UniProt P55899 24-297; P61769 21-119); test: SPR, pH 6.0, steady state, average; pH 6.0; average of four replicates

human CD16a F158, sequence (P08637 17-208 limits assumed): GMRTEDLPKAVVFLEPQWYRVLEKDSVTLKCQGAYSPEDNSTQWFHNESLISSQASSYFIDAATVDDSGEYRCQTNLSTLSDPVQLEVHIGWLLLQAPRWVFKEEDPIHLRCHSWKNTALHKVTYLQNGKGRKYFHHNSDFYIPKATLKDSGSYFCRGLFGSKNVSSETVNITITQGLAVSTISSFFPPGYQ
T3 sequence (Q8SPW2 17-208 limits assumed): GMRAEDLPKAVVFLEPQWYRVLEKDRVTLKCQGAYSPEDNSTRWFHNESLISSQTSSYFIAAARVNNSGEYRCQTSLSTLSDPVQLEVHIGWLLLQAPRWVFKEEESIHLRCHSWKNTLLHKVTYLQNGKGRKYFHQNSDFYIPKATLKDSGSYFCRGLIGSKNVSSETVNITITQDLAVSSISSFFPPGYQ
T2 sequence (P08637 17-208 F176V limits assumed): as the sequence (P08637 17-208 limits assumed) above, with F160V counted along it
T8 sequence (Q8SPV9 24-297 limits assumed, chain 1 of 2): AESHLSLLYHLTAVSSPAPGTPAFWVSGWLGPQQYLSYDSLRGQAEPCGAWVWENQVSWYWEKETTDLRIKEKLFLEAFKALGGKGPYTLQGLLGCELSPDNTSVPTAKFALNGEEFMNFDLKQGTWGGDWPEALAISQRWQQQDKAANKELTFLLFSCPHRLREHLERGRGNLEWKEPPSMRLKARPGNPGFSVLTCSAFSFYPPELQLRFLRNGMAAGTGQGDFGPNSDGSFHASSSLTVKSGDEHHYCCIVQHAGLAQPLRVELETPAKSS
T8 sequence (Q8SPW0 21-119 limits assumed, chain 2 of 2): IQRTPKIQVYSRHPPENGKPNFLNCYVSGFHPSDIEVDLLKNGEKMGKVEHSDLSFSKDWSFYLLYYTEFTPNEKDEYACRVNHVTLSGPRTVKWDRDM

koff [1]: 0.11 s⁻¹ and 0.1 s⁻¹ | kon [1]: 210000 M⁻¹ s⁻¹ and 200000 M⁻¹ s⁻¹ | koff [2]: 0.11 s⁻¹ and 0.12 s⁻¹ | kon [2]: 180000 M⁻¹ s⁻¹ and 190000 M⁻¹ s⁻¹ | koff [3]: 0.11 s⁻¹ | kon [3]: 200000 M⁻¹ s⁻¹ | koff [4]: 0.014 s⁻¹ | kon [4]: 110000 M⁻¹ s⁻¹ | koff [5]: 0.021 s⁻¹ | kon [5]: 76000 M⁻¹ s⁻¹ | Kd [6]: 271 nM | koff [6]: 0.021 s⁻¹ | kon [6]: 76000 M⁻¹ s⁻¹ | Kd [7]: 145 nM | koff [7]: 0.017 s⁻¹ | kon [7]: 130000 M⁻¹ s⁻¹ | koff [8]: 0.11 s⁻¹ | kon [8]: 190000 M⁻¹ s⁻¹ | Kd [9]: 1330 nM and 1260 nM and 1370 nM and 1430 nM | lysis of BJAB target cells by rested primary human NK cells, EC50 [10]: 0.06 nM | specific lysis of BAFF-R+ target cells by KHYG-1-CD16V effector cells, EC50 [10]: 0.05 nM | Kd [11]: 498 nM and 516 nM and 528 nM and 525 nM | EC50 [13]: 0.27 nM | Max FOB [13]: 8 fold over background | Kd [14]: 129 nM | Kd [15]: 1000 nM | EC50 [16]: 0.09 nM | Max FOB [16]: 4 fold over background | Kd [17]: 517 nM | EC50 [18]: 0.41 nM | Max FOB [18]: 19 fold over background | EC50 [19]: 0.7 nM | Max FOB [19]: 146 fold over background | EC50 [20]: 0.82 nM | EC50 [21]: 3.09 nM | Kd [22]: 522 nM | EC50 [23]: 0.9 nM | Max FOB [23]: 141 fold over background | Kd [24]: 1000 nM | Kd [25]: 1000 nM
B1: AB1424/AB1612 F3′ TriNKET (bispecific antibody, human IgG1, kappa)
chain: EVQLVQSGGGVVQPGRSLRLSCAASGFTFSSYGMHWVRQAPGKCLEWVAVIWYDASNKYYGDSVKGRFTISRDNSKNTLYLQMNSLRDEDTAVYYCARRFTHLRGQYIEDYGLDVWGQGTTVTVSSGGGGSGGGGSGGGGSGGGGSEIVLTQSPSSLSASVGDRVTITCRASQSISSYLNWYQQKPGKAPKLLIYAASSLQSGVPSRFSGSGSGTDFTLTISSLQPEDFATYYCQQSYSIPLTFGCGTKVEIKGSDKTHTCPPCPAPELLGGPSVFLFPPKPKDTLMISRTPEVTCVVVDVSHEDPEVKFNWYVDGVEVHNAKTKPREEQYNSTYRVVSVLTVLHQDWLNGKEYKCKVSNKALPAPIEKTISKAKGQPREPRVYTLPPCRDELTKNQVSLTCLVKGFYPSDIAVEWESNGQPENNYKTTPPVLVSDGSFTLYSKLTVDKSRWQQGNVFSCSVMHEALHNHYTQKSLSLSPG
heavy: EVQLVESGGGLVKPGGSLRLSCAASGFTFSSYSMNWVRQAPGKGLEWVSSISSSSSYIYYADSVKGRFTISRDNAKNSLYLQMNSLRAEDTAVYYCARGAPIGAAAGWFDPWGQGTLVTVSSASTKGPSVFPLAPSSKSTSGGTAALGCLVKDYFPEPVTVSWNSGALTSGVHTFPAVLQSSGLYSLSSVVTVPSSSLGTQTYICNVNHKPSNTKVDKKVEPKSCDKTHTCPPCPAPELLGGPSVFLFPPKPKDTLMISRTPEVTCVVVDVSHEDPEVKFNWYVDGVEVHNAKTKPREEQYNSTYRVVSVLTVLHQDWLNGKEYKCKVSNKALPAPIEKTISKAKGQPREPQVCTLPPSRDELTENQVSLTCLVKGFYPSDIAVEWESNGQPENNYKTTPPVLDSDGSFFLYSWLTVDKSRWQQGNVFSCSVMHEALHNHYTQKSLSLSPG
light: DIQMTQSPSSVSASVGDRVTITCRASQGISSWLAWYQQKPGKAPKLLIYAASSLQSGVPSRFSGSGSGTDFTLTISSLQPEDFATYYCQQGVSFPRTFGGGTKVEIKRTVAAPSVFIFPPSDEQLKSGTASVVCLLNNFYPREAKVQWKVDNALQSGNSQESVTEQDSKDSTYSLSSTLTLSKADYEKHKVYACEVTHQGLSSPVTKSFNRGEC
notes: Chain S: anti-BAFF-R scFv-CH2-CH3; chain H: anti-NKG2D VH-CH1-CH2-CH3; chain L: anti-NKG2D VL-CL; also called AB1612-002
KHYG-1-CD16a cytotoxicity on BJAB cells, EC50 [12]: 0.03 nM
